# Data: patent publication US20110263824A1 (JAPAN TOBACCO, published 2011)
# Residue numbers refer to the chain shown, from its start.
# B1: TM2 R104EK141E (other)
# chain: MSDVQSSLTGTWYNELNSKMELTANKDGTLTGKYLSKVGDVYVPYPLSGRYNLQPPAGQGVALGWAVSWENSKIHSATTWSGQFFSESSPVILTQWLLSSSTAEGDVWESTLVGNDSFTKTAPTEQQIAHAQLHCRAPRLE
# notes: TM2 double mutant; also called R104-K141
# B2: TM2 K26A (other)
# chain: B1 chain with K26A, E104R, E141K
# notes: TM2 mutant
# B3: TM2 K141E (other)
# chain: B1 chain with E104R
# notes: TM2 mutant
# B4: tamavidin 2 (wild type) (other)
# chain: B1 chain with E104R, E141K
# notes: also called TM2; TM2WT
# B5: TM2 R104E (other)
# chain: B1 chain with E141K
# notes: TM2 mutant
# B6: TM2 K73Q (other)
# chain: B1 chain with K73Q, E104R, E141K
# notes: TM2 mutant
# Target: fibronectin
# Assay: ELISA on fibronectin-immobilized plate, biotinylated HRP detection
# Procedure: (§1) The fibronectin-binding of each low-pI TM2 was compared using a microplate to which fibronectin was immobilized. The concentration of fibronectin was adjusted to 50 μg/mL with a fixation solution exclusive for a New ELISA plate, and the fibronectin solution (50 μL) was added to each New ELISA plate (Sumitomo Bakelite), followed by shaking at 37° C. for 4 hours for immobilization. Then, the plate was washed with 0.1% Triton X-100-containing PBS (300 μL) three times and was then dried naturally.
# (§2) TM2, K26A, K73Q, R104E, K141E, and R104EK141E mutants (50 μL each) were each added to the corresponding well of the plate and left at room temperature for 1 hour. The plate was washed with 300 μL/well of PBST (PBS buffer containing 0.1% Tween 20) three times. Then, biotinylated HRP diluted 5000 times with PBST containing 0.5% BSA was added at 50 μL/well and allowed to react with the mutant at room temperature for 1 hour. After washing with 300 μL/well of PBST three times, 50 μL/well of 1-Step Ultra TMB-ELISA solution was added to each well for color development.
row,Binding of fibronectin (A450),Binder
1,0.11 A450,B1
2,0.85 A450,B2
3,0.21 A450,B3
4,1.34 A450,B4
5,0.7 A450,B5
6,0.98 A450,B6

# Target: fibronectin
# Assay: summary of Example 1-10: ELISA on fibronectin-immobilized plate
# Procedure: as §1, §2
row,Binder,amount of fibronectin binding relative to wild type TM2
1,B1,10 to 20 % of wild type TM2
2,B3,10 to 20 % of wild type TM2
